Source: patent US5955431A, “Mast cell protease peptide inhibitors” (Brigham and Women's Hospital, Inc., priority 1998, dated 1999)
Where a SMILES comes first, the peptide text is derived from it. Where no end group is shown, it is not given here. The star is where a group is joined. pNA = O=[N+]([O-])c1ccc(N*)cc1; Tos = Cc1ccc(S(=O)(=O)*)cc1; Bz = O=C(c1ccccc1)*

B1: mMCP-6-FLAG/heparin complex: recombinant mMCP-6-FLAG bound to heparin glycosaminoglycan (protein, UniProt P21845 32-276, looked up)
Tryptase beta-2: IVGGHEASESKWPWQVSLRFKLNYWIHFCGGSLIHPQWVLTAAHCVGPHIKSPQLFRVQLREQYLYYGDQLLSLNRIVVHPHYYTAEGGADVALLELEVPVNVSTHIHPISLPPASETFPPGTSCWVTGWGDIDNDEPLPPPYPLKQVKVPIVENSLCDRKYHTGLYTGDDFPIVHDGMLCAGNTRRDSCQGDSGGPLVCKVKGTWLQAGVVSWGEGCAQPNKPGIYTRVTYYLDWIHRYVPEHS
modifications: C-terminal FLAG tag; complexed with heparin
B2: trypsin: serine protease used as comparison in fibroblast adhesion test (protein, UniProt P00760 24-246, looked up)
Serine protease 1: IVGGYTCGANTVPYQVSLNSGYHFCGGSLINSQWVVSAAHCYKSGIQVRLGEDNINVVEGNEQFISASKSIVHPSYNSNTLNNDIMLIKLKSAASLNSRVASISLPTSCASAGTQCLISGWGNTKSSGTSYPDVLKCLKAPILSDSSCKSAYPGQITSNMFCAGYLEGGKDSCQGDSGGPVVCSGKLQGIVSWGSGCAQKNKPGVYTKVCNYVSWIKQTIASN

The molecules below were run against T1, recombinant mMCP-6-FLAG (Mus musculus, UniProt P21845) (assay: spectrophotometric cleavage of trypsin-susceptible p-nitroanilide substrates by EK-activated mMCP-6-FLAG). Details: in the absence of heparin.
T1 construct: endogenous pro-peptide followed by EK-susceptible peptide (Asp-Asp-Asp-Asp-Lys) (N, cleaved yes); made in house; host or cells: baculovirus; Spodoptera frugiperda 9 for virus, Trichoplusia ni High Five insect cells for expression
T1 sequence (P21845 32-276): B1 Tryptase beta-2
Assay type: biochemical
Method: Purified pro-EK-mMCP-6-FLAG (~100 μg in 100 μl) was separately mixed with 100 μl of a pH 5.2 buffer consisting of 50 mM sodium acetate and 5 mM calcium chloride. One μl of a solution containing 550 U of calf intestine EK (Biozyme) was added to each, and the mixture was incubated at 37° C. generally for 3 h to allow EK to activate the zymogen in the absence of heparin. The spectrophotometric method of Svendsen and coworkers (Throm. Res. 1972, 1:267-278) was used to determine whether or not mMCP-6-FLAG is enzymatically active. Generally, 1-μl samples of each activation reaction were placed in 1 ml of a pH 7.4 buffer containing 25 mM sodium phosphate, 1 mM EDTA, and 50 μg of tosyl-Gly-Pro-Lys-p-nitroanilide. The change in optical density at 405 nm was then determined after a 3-min incubation at room temperature. The ability of recombinant mMCP-6-FLAG to cleave the trypsin-susceptible substrates tosyl-Gly-Pro-Arg-p-nitroanilide, benzoyl-Ile-Glu-Gly-Arg-p-nitroanilide, benzoyl-Pro-Phe-Arg-p-nitroanilide, and acetyl-Ile-Glu-Ala-Arg-p-nitroanilide were also evaluated.

Molecule	cleavage of substrate by EK-activated tryptase (mMCP-6-FLAG)
Cc1ccc(S(=O)(=O)NCC(=O)N2CCC[C@H]2C(=O)N[C@@H](CCCNC(=N)N)C(=O)Nc2ccc([N+](=O)[O-])cc2)cc1 [tosyl-Gly-Pro-Arg-p-nitroanilide] (Tos-Gly-Pro-Arg-pNA)	readily cleaves
Cc1ccc(S(=O)(=O)NCC(=O)N2CCC[C@H]2C(=O)N[C@@H](CCCCN)C(=O)Nc2ccc([N+](=O)[O-])cc2)cc1 [tosyl-Gly-Pro-Lys-p-nitroanilide] (Tos-Gly-Pro-Lys-pNA)	readily cleaves

Same assay, conditions: in the presence or absence of heparin

Molecule	cleavage of substrate by mMCP-6-FLAG
CC[C@H](C)[C@H](NC(=O)c1ccccc1)C(=O)N[C@@H](CCC(=O)O)C(=O)NCC(=O)N[C@@H](CCCNC(=N)N)C(=O)Nc1ccc([N+](=O)[O-])cc1 [benzoyl-Ile-Glu-Gly-Arg-p-nitroanilide] (Bz-IEGR-pNA)	does not effectively cleave
N=C(N)NCCC[C@H](NC(=O)[C@H](Cc1ccccc1)NC(=O)[C@@H]1CCCN1C(=O)c1ccccc1)C(=O)Nc1ccc([N+](=O)[O-])cc1 [benzoyl-Pro-Phe-Arg-p-nitroanilide] (Bz-Pro-Phe-Arg-pNA)	does not effectively cleave

What follows are molecules tested against T1, recombinant mMCP-6-FLAG (assay: screening of tryptase-specific phage peptide display library with mMCP-6-FLAG in the absence of heparin). Details: library incubated 4 times with mMCP-6-FLAG, 30 clones.
Assay type: biochemical
Source text: (§1) Screening of a Tryptase-Specific, Bacteriophage Peptide Display Library with mMCP-6--A peptide display library that encodes an altered pIII containing at its N terminus the FLAG peptide followed by an 8-residue hypervariable peptide was screened with recombinant mMCP-6-FLAG. Briefly, phage were obtained that express on their surface a pill fusion protein with an extension peptide consisting of the FLAG peptide and a hypervariable octamer peptide containing a Lys/Arg residue at the PI site. After the varied phages in the library were allowed to bind to the anti-FLAG IgG column, the immuno-affinity column was incubated with recombinant mMCP-6-FLAG in the presence or absence of heparin. Those phage recovered in the column's eluate were amplified, and the selection procedure was repeated one lo three times. By determining the nucleotide sequence of the relevant portion of the geneIII construct in each clone, the amino acid sequence of the mMCP-6-susceptible peptide in the random domain of the pIII fusion protein was deduced. To prepare the phage column used in the screening process, 10 ml of the phage-enriched supernatant was added to 2 ml of 20% polyethylene glycol (8 kDa; Sigma) and 2.5 M NaCl and the mixture incubated at 4° C. for 30 min. After a 30 min centrifugation at 10,000 g, the recombinant phage in the pellet were resuspended in 2 ml of 150 mM NaCl, 1 mM […], and 10 mM sodium phosphate, pH 7.0, and applied to a 1-ml affinity column containing the anti-FLAG M1 monoclonal antibody. The column was washed 3 times with 10 ml of the same pH 7.0 buffer to remove unbound phage. EK-activated mMCP-6-FLAG (~50 μg in 200 μl buffer) in the absence or presence of heparin glycosaminoglycan (~50 μg) was added, and the column was sealed and incubated at room temperature for 90 min. […] Log-phase E. coli were infected with the obtained phage to produce phagemid. Bacteria were again grown in 2×YT medium containing 2% glucose and the phagemid in the bacteria were converted to phage with the addition of helper phage. This screening procedure was repeated up to 4 times to select the phage in the library which are most susceptible to degradation by mMCP-6-FLAG.
(§2) E. coli was infected with resulting mMCP-6-FLAG-susceptible phage to generate phagemids. The infected bacteria were seeded onto a plate containing 1.5% agar, 2% Bacto-tryptone, 0.5% Bacto-yeast extract, 2% glucose, 0.09 M NaCl, 0.01 M MgCl2, and 100 μg/ml ampicillin. Individual clones were isolated and grown overnight at 37° C. in 2 ml of 2×YT medium containing 2% glucose with 50 μg/ml ampicillin. One ml of the overnight cultures were centrifuged at ~12,000 g for 5 min. The bacteria in the pellets were lysed and the DNAs were extracted with mini-prep method. The DNAs were digested with NotI and EcoRI restriction enzymes at 37° C. overnight. The digested DNA mini-preps were subjected to electrophoresis on a 1% agarose gel, and those individual phage clones with ~1300-bp inserts were selected for maxi-preparation of their DNAs using nucleobond DNA-binding columns (The Nest Group). The nucleotide sequences which encode the 8-mer, protease-susceptible peptide domains in the fusion proteins were determined.

Molecule	Clones (number of clones with this mMCP-6-susceptible peptide)
ECRQRHTR	1
EEKKKHKK	1
FISRRVCR	1
GPRLRHPR	1
IRFARSQA	1
KKIERRNT	1
LCAKRLYR	1
LIALRSTT	1
LSTSRASI	1
NLRKRKIK	1
NSTVRKRK	1
PDNQRYIT	1
PLILRSRA	1
PLPCKLDA	1
PPPFRRSS	1
PTPLKHPR	1
PYPPKRTP	1
QKRGREPR	1
QRTKRKHN	1
RKPTKKNS	1
RQNRRPSN	1
SLALRVWR	1
SLSSRQSP	1
SPRPRSTP	1
TGVHKPST	1
VRPARALH	1
VRPVKSFR	2

Each molecule was assayed against T2, mMCP-6/heparin complex (Mus musculus, UniProt P21845) (assay: screening of tryptase-specific phage peptide display library with mMCP-6-FLAG in the presence of heparin). Details: four rounds of treatment, equal weight amount of heparin.
T2 construct: endogenous pro-peptide followed by EK-susceptible peptide (Asp-Asp-Asp-Asp-Lys) (N, cleaved yes); made in house; host or cells: baculovirus; Spodoptera frugiperda 9 for virus, Trichoplusia ni High Five insect cells for expression
T2 sequence (P21845 32-276): B1 Tryptase beta-2
Assay type: biochemical
Source text: as §1, §2

Molecule	Clones (number of clones with this mMCP-6-susceptible peptide)
PKETKQTN	1
RNRQKTNN	4
SLSSRQSP	2
SVLPKLRI	1
TPLLKSWL	7

Same assay, conditions: mMCP-6/heparin complex

Molecule	susceptibility of the sequence to cleavage
RNRQKT [SEQ. ID NO. 1]	susceptible to cleavage by the mMCP-6/heparin complex

Same assay, conditions: two rounds of treatment, equal weight amount of heparin

Molecule	Clones (number of clones with this mMCP-6-susceptible peptide)
PFTHKSLS	1
PKETKQTN	1
RNRQKTNN	11
SLSSRQSP	3
SVLPKLRI	1
TPLLKSWL	5

These molecules were tested on mouse fibronectin (assay: in vitro degradation of fibronectin by recombinant tryptases). Details: SDS-PAGE of digests.
Assay type: biochemical
Method: In Vitro Degradation of Fibronectin by Recombinant mMCP-6-FLAG--Five μg of purified mouse fibronectin (Alexis) was suspended in 1 mM EDTA and 25 mM sodium phosphate, pH 7.4, containing 0.01 U EK, 0.5 μg recombinant pro-EK-mMCP-6-FLAG, 0.5 μg recombinant mMCP-6-FLAG (activated with 0.01 U EK), or 0.5 μg recombinant mMCP-7FLAG (activated with 0.01 U EK). After an incubated for various lengths of times, the resulting digests were subjected to SDS-PAGE. In one experiment, the N-terminal amino acid sequences; of the major fibronectin fragments in the mMCP-FLAG digest were determined.

Molecule	cleavage of fibronectin in vitro
B1	readily cleaved

What follows are molecules tested on Swiss albino mouse skin-derived 3T3 fibroblasts (assay: adhesion and growth of fibroblasts on fibronectin-coated culture dishes). Details: 15 min at 37° C.
Assay type: cell-based
Method: However, these cells will become less adhesive and divide in vitro when they are trypsin treated. To determine if mMCP-6-FLAG could specifically alter the growth and/or adhesion of these cells, the fibroblasts were allowed to attach to replicate fibronectin-coated culture dishes and then were incubated for 15 min at 37° C. with buffer alone or buffer containing either pro-EK-mMCP-6-FLAG, mMCP-6-FLAG, mMCP-7-FLAG, or trypsin. […] SDS-PAGE/immunoblot analysis of the supernatants from the result cultures confirmed that fibronectin was degraded in the mMCP-6-FLAG-treated cultures but not in the pro-EK-mMCP-6-FLAG or mMCP-7-FLAG treated cultures.

Molecule	adhesion/shape of fibroblasts on fibronectin-coated dishes
B2	rapidly induced the cultured fibroblasts to round up

Same assay, conditions: 40 min incubation

Molecule	fibroblasts remaining attached to the culture dish
B2	very few fibroblasts remained attached
